Measurements taken from IntAct's records for PubMed 20133654.

How the values were obtained:
[1] = molecular target: obscn_human OBSCN (UniProt Q5VST9)
[2] = molecular target: obsl1_human OBSL1 (UniProt O75147)
Chain of obsl1_human OBSL1 (O75147 whole entry): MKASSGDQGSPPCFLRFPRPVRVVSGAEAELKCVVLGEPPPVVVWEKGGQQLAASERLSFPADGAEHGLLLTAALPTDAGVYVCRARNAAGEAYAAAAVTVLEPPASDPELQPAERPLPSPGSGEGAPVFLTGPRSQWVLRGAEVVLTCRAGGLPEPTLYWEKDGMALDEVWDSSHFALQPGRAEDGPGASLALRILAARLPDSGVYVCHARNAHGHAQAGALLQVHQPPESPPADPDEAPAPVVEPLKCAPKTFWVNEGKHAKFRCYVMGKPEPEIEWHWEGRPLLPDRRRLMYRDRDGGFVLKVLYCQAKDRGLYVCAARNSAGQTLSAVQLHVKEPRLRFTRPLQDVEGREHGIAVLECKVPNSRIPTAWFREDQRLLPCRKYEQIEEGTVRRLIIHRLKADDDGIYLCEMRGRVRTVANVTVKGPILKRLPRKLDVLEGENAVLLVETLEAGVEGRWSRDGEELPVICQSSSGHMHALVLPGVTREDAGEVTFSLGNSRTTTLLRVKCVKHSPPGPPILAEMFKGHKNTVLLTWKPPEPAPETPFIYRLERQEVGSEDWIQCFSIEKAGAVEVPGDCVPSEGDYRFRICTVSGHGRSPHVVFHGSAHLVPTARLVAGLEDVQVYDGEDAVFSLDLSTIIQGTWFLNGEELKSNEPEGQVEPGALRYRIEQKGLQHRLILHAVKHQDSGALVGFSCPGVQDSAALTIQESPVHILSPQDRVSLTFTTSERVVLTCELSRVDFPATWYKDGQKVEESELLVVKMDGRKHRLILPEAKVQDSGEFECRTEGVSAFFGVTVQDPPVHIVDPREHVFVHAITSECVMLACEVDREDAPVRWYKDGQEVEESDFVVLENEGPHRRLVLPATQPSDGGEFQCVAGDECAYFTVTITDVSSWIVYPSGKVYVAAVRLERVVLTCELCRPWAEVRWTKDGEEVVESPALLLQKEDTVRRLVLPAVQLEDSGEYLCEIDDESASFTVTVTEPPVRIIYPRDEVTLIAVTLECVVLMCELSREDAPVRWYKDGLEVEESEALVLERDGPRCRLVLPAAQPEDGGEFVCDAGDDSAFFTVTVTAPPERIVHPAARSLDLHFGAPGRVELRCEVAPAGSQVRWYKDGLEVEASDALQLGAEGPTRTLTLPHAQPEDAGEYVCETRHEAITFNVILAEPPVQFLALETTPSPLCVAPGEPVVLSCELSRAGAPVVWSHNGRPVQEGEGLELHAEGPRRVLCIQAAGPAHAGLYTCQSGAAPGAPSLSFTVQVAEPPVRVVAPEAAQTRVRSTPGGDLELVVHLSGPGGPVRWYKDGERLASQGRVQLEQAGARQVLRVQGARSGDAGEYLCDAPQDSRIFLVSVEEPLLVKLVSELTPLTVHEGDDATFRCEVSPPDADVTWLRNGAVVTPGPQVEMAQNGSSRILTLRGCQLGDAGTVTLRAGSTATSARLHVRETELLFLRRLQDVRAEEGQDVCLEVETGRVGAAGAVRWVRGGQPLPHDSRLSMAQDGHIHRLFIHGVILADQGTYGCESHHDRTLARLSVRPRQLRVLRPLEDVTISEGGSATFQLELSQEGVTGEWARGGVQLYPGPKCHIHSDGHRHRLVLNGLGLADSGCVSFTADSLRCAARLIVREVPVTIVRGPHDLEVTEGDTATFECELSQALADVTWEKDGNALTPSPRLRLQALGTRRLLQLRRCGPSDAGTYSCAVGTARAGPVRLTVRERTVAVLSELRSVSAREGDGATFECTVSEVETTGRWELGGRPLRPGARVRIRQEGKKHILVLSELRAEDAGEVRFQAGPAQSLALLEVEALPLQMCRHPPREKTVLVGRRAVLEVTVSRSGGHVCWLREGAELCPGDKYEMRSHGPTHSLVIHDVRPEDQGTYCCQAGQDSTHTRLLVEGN

Substance: Titin (Homo sapiens), Q8WZ42 A34260Y
- effect of a mutation on the interaction [1]: disrupting interaction
- effect of a mutation on the interaction [2]: disrupting interaction

Substance: Titin (Homo sapiens), Q8WZ42 I34306N
- effect of a mutation on the interaction [1]: increasing interaction
